# Residue numbers refer to the chain shown, from its start. Numbers in names are those of the source.
# B1: 2381D02 (designed binder)
# chain: MGVSDVPRDLEVVAATPTSLLISWEPFSRLPGGGEYYRITYGETGGNSPLQQFTVPGSKGTATISGLKPGVDYTITVYAVEYPYDHSGYYHRPISINYRTEIDKPSQHHHHHH
# B2: 2381H03 (designed binder)
# chain: B1 chain with D85A, Y90F
# B3: 2381A04 (designed binder)
# chain: B1 chain with D85P, H86F
# B4: 2381B06 (designed binder)
# chain: B1 chain with D85P
# B5: 2381G03 (designed binder)
# chain: B1 chain with Y82F, D85A
# B6: 1923B02(N82I) (designed binder)
# chain: MGVSDVPRDLEVVAATPTSLLISWTPPPKGYGYYRITYGETGGNSPVQEFTVPVGEGTATISGLKPGVDYTITVYAVEYTYIGAGYYHRPISINYRTGSGSHHHHHH
# B7: 1923B02(N82E) (designed binder)
# chain: B6 chain with I82E
# B8: 1923B02(T80A) (designed binder)
# chain: B6 chain with T80A, I82N
# B9: 1922G04(R25D) (designed binder)
# chain: B6 chain with T25D, P28S, K29H, G30A, V54I, E56K, T80P, Y81W, I82K, A84S
# B10: 1922G04(R25S) (designed binder)
# chain: B6 chain with T25S, P28S, K29H, G30A, V54I, E56K, T80P, Y81W, I82K, A84S
# B11: 1922G04(R25E) (designed binder)
# chain: B6 chain with T25E, P28S, K29H, G30A, V54I, E56K, T80P, Y81W, I82K, A84S
# B12: 2382D08 (designed binder)
# chain: MGVSDVPRDLEVVAATPTSLLISWDAPADGYGYYRITYGETGGNSPVQEFTVPVSKGTATISGLKPGVDYTITVYAVEFPFPGSGYYHRPISINYRTEIDKPSQHHHHHH
# B13: 1784F03-m2 (designed binder)
# chain: B12 chain with D29H, G30A, V54G, F79Y, P80T, P82K, G83H
# B14: 1784F03-m3 (designed binder)
# chain: B12 chain with D29V, G30T, V54G, G57S, F79Y, P80T, P82K, G83H
# B15: 1784F03-m1 (designed binder)
# chain: B12 chain with A28I, D29H, G30A, V54G, K56E, F79Y, P80T, P82K, G83H
# B16: 2382B11 (designed binder)
# chain: B12 chain with D29A, G30A, F79Y, P80D, P82A
# B17: 2451A02 (designed binder)
# chain: B12 chain with D29A
# B18: 2382C11 (designed binder)
# chain: B12 chain with D29G, F79Y, P80D, P82A
# B19: 2451G01 (designed binder)
# chain: B12 chain with D29G, V54S, P80D
# B20: 2382F08 (designed binder)
# chain: B12 chain with D29E, G30A, P80T, F81Y
# B21: 2451H01 (designed binder)
# chain: B12 chain with D29A, F79Y, P80D
# B22: 2382F09 (designed binder)
# chain: B12 chain with D29A, G30A, F79Y, P80D
# B23: 2382H07 (designed binder)
# chain: B12 chain with G30A, V54G, P80D
# B24: 2382H11 (designed binder)
# chain: B12 chain with S55F, P80D, F81Y
# B25: 2011H05(V23E) (designed binder)
# chain: MGVSDVPRDLEVVAATPTSLLISWEPSSHAYGYYRITYGETGGNSPVQEFTVPVGVGTATISGLKPGVDYTITVYAVEYAFEGAGYYHRPISINYRTEIDKPSQHHHHHH
# B26: 2451D05 (designed binder)
# chain: B12 chain with D29G, G30A, P80D
# B27: 2382B08 (designed binder)
# chain: B12 chain with G30A, V54S, P80A, S84A
# B28: 2451F03 (designed binder)
# chain: B12 chain with A26P, D29E, P80N
# B29: 2382E09 (designed binder)
# chain: B12 chain with D29E, G30A, F79Y, P80D
# B30: 2011H05(V23D) (designed binder)
# chain: B25 chain with E25D
# B31: 2011B11 (designed binder)
# chain: B25 chain with E25A, S27P, H29D, V54I, V56K, A80P, F81Y, E82S, G83H
# B32: 2451B05 (designed binder)
# chain: B12 chain with D29G, V54S, P80D, F81Y
# B33: 2451B02 (designed binder)
# chain: B12 chain with D29A, G30A, P80D, F81Y
# B34: ATI001114 (designed binder)
# chain: MGVSDVPRDLEVVAATPTSLLISWVPPSDDYGYYRITYGETGGNSPVQEFTVPIGKGTATISGLKPGVDYTITVYAVEFPWPHAGYYHRPISINYRTGSGCHHHHHH
# modifications: PEGylated on the cysteine of the C-terminal GSGC tail (two-branched 40 kDa PEG)
# notes: PEGylated version of the 2013E01 Adnectin, His6-tagged; also called ATI1114
# B35: ATI001117 (designed binder)
# chain: B6 chain with T25V, P27S, P28S, K29H, G30A, E56V, T80A, Y81F, I82E, S101C
# modifications: PEGylated on the cysteine of the C-terminal tail (marked by asterisk in Table 5 as having been pegylated; PEG not specified)
# notes: Anti-PCSK9 Adnectin, cysteine mutant of 2011H05, His6-tagged; also called 2011H05 Cys mut
# B36: 2971A03 (designed binder)
# chain: B12 chain with A26P, A28S, G30D, V54I, S55G, F81W, G83H, S84A
# notes: Anti-PCSK9 Adnectin, His6-tagged
# B37: ATI001168 (designed binder)
# chain: B25 chain with S27P, V54I, V56K, A80P, F81W, E82K, A84S
# B38: ATI001175 (designed binder)
# chain: B25 chain with E25D, S27P, V54I, V56K, A80P, F81W, E82K, A84S
# B39: 2971E02 (designed binder)
# chain: B12 chain with A28S, G30D, V54I, S55G, F81W, G83H, S84A
# notes: as for B36
# B40: 2971A09 (designed binder)
# chain: B12 chain with G30D, V54I, S55G, F81W, G83H, S84A
# notes: as for B36
# B41: ATI001119 (designed binder)
# chain: MGVSDVPRDLEVVAATPTSLLISWRPPSNGHGYYRITYGETGGNSPVQEFTVPVNEGTATISGLKPGVDYTITVYAVEFPFKWSGYYHRPISINYRTGSGCHHHHHH
# modifications: PEGylated on the cysteine of the C-terminal tail (marked by asterisk in Table 5 as having been pegylated; PEG not specified)
# notes: Anti-PCSK9 Adnectin, cysteine mutant of 2012A04, His6-tagged; also called 2012A04 Cys mut
# B42: 2451B06 (designed binder)
# chain: MGVSDVPRDLEVVAATPTSLLISWDAPADGGYGYYRITYGETGGNSPVQEFTVPVSKGTATISGLKPGVDYTITVYAVEFDFPGAGYYHRPISINYRTEIDKPSQHHHHHH
# Biological target: T1, human PCSK9 (proprotein convertase subtilisin kexin type 9) (human, UniProt Q8NBP7 31-692)
# Test: cell-based or functional assay
Binder,LDLR Depletion (% inhibition at 75 nM) [%],LDLR Depletion EC50 [nM]
B1,185,
B2,89.8,
B3,100,
B4,120,
B5,70.2,
B6,,14
B7,,28
B8,,42
B9,,29
B10,,21
B11,,29
B12,107,
B13,,> 2000
B14,,> 2000
B15,,> 2000
B16,88.8,
B17,106,

Binder,LDLR Depletion (% inhibition at 75 nM) [%],LDLR Depletion EC50 [nM]
B18,82.9,
B19,90.8,
B20,105,
B21,95.8,
B22,110,
B23,86.2,
B24,117,
B25,,12
B26,115,
B27,107,
B28,113,
B29,97.2,
B30,,18
B31,144,
B32,91.7,
B33,71.4,

# Biological target: T2, human PCSK9 (proprotein convertase subtilisin kexin type 9) (human, UniProt Q8NBP7 31-692)
# T2 construct: Directly immobilized (SPR ProteOn), biotinylated (BLI), or in solution, depending on the assay; also called hPCSK9
# Test: BLI, biotinylated hPCSK9 on sensor tips
# Procedure: Tips were then immersed into a buffer-only well for observation of Adnectin dissociation. Experiments were performed in a temperature controlled environment at either 25 or 37° C., and the oscillation speed was set at 1500 rpm.
# Binding interaction analysis was performed using proprietary software from Fortebio (Fortebio Data Analysis Software version 6.3.0.36). Global fits were performed for all samples, using a 1:1 binding model. The nature of these global fits constrained all values of concentration to a single pair of association and dissociation rates that were themselves constrained to each other. Affinities (KD), association and dissociation rates were averaged over the various loading levels used in the analysis.
Binder,Kd [nM],koff [s⁻¹],kon [M⁻¹ s⁻¹]
B34,4.88,0.000395,80700
B35,0.554,5.07e-05,145000
B36,0.806,0.00042,574000
B37,0.586,0.000333,583000
B38,0.543,0.000352,656000
B39,1.78,0.000555,355000
B40,2.79,0.00105,399000
B41,5.3,0.000445,81900

# Biological target: T1, human PCSK9 (proprotein convertase …)
# Test: PCSK9:EGFA FRET, competitor EGFA peptide
row,Binder,EC50 [nM]
1,B1,3.1
2,B2,3.4
3,B3,3.3
4,B4,3.5
5,B5,3.4
6,B9,2.5
7,B11,3.5
8,B12,3.1
9,B16,2.9
10,B17,3.2
11,B18,3.7
12,B19,3.8
13,B20,2.5
14,B21,2.8
15,B22,3.1
16,B23,2.7
17,B24,2.9
18,B25,7.4
19,B26,2.8
20,B27,2.9
21,B28,2.8
22,B29,6.2
23,B30,5.5
24,B31,1.7
25,B32,6.3
26,B33,5.3
27,B42,4.5
